Experimental data from US20230287146A1 (LAMKAP BIO GAMMA, published 2023).

What was measured:
[1] = biological target: T1, human CD28 (human, UniProt P10747 19-220); assay: flow cytometry on Jurkat cells
T1 construct: whole, on cells; also called huCD28
Procedure: (§1) Cells were harvested, checked for viability, and counted. 200'000 cells were incubated for 15 minutes at 4° C. with increasing concentrations of the antibodies diluted in FACS buffer (PBS 2% BSA). Cells were washed twice with cold FACS buffer and re-incubated for further 15 minutes at 4° C. with a suitable anti-human IgG secondary antibody. Cells were washed twice with cold FACS buffer and resuspended in 150 μl FACS buffer with a compatible viability marker. Binding of antibodies to living cells was measured by flow cytometry using a Cytoflex Platform (Beckman Coulter). Data was analyzed with FlowJo™ v10 software (BD Life Sciences) and dose-response binding curves were drawn using GraphPad Prism 9 software. AD84 GPC3 arm of the GPC3×CD3 bispecific antibody and P44, P30, P111 GPC3 arms of the GPC3×CD28 bispecific antibodies of this invention were selected from this screening process based on their specificity and binding signal intensity to GPC3 positive cells.
Examples of cells that can be used include GPC3 positive cell lines such as the gastric carcinoma cell line FU97 (JCRB1074), CD28 positive cell lines such as the leukemic Jurkat T cells as well as GPC3/CD28 double negative cell line, such as the leukemic TIB-153 cells. Cell staining and binding assessment was performed as described in Example 6. An irrelevant hIgG1 mAb served as negative isotype control and was used in all shown experiments for comparison. Binding data on FU97 cells (FIG. 2A) emphasizes the range of binding affinities for huGPC3 of the selected anti-GPC3 arms of the invention, P44 and P30. Both P44 and P30 arms are binding to membrane distal domains within GPC3. Binding on CD3 positive Jurkat cells highlight how these two CD28×GPC3 bispecific antibodies sharing the same anti-CD28 arm (e.g. AI3) bind similarly to CD28 positive cells (FIG. 2B).

[2] = biological target: T1, human CD28; assay: flow cytometry, bivalent mAb on Jurkat cells
Procedure: as §1
The binding capacity of the anti-CD28 antibody arms of the invention, tested as bivalent mAbs, was assessed using Jurkat cells (Jurkat Clone E6-1, ATCC TIB 152) by flow cytometry. The flow cytometry methodology was the same as the one described above. AI3 and AI10 CD28 binding arms were selected from this screening process based on their specificity and binding signal intensity to CD28 positive cells.

T1 sequence (P10747 19-220): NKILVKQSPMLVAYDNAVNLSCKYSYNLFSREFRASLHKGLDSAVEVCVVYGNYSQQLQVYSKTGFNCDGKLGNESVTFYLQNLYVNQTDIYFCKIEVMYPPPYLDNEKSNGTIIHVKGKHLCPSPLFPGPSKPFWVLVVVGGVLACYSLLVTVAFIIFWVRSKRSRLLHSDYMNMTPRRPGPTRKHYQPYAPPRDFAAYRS

Row | Binder | binding result [1] | binding result [2]
1 | AI3P30/N (bispecific antibody, human IgG1, kappa, lambda, L234A L235A, also called GPC3×CD28 bispecific antibody) heavy: not shown light 1: not shown light 2: QSALTQPASVSGSPGQSITISCTGTSSDVPEDALVSWYQQHPGKAPKLMIYYDSTRPSGVSNRFSGSKSGNTASLTISGLQAEDEADYYCSSWDFGTGSKVFGGGTKLTVLGQPKAAPSVTLFPPSSEELQANKATLVCLISDFYPGAVTVAWKADSSPVKAGVETTTPSKQSNNKYAASSYLSLTPEQWKSHRSYSCQVTHEGSTVEKTVAPTECS | binds | 
2 | AI3P44/N (bispecific antibody, human IgG1, kappa, lambda, L234A L235A, also called GPC3×CD28 bispecific antibody; GPC3×CD28 κλ-body) heavy: not shown light 1: not shown light 2: NFMLTQPHSVSESPGKTVTISCTRSSGSISYDDVQWYQQRPGSSPTTVIYFNNLRPSGVPDRFSGSIDSSSNSASLTISGLKTEDEADYYCQSWDLRHRVFGGGTKLTVLGQPKAAPSVTLFPPSSEELQANKATLVCLISDFYPGAVTVAWKADSSPVKAGVETTTPSKQSNNKYAASSYLSLTPEQWKSHRSYSCQVTHEGSTVEKTVAPTECS | binds | 
3 | AI10P44/N (bispecific antibody, human IgG1, kappa, lambda, L234A L235A, also called AI10-containing bispecific antibody; GPC3×CD28 bispecific antibody) heavy: not shown light 1: DIVMTQTPLSLSVTPGQPASISCKSSGDLLEFAGKTYLYWYLQKPGQPPQLLIYEVSNRFSGVPDRFSGSGSGTDFTLKISRVEAEDVGVYYCMQAHGSKIGFTFGQGTKVEIKRTVAAPSVFIFPPSDEQLKSGTASVVCLLNNFYPREAKVQWKVDNALQSGNSQESVTEQDSKDSTYSLSSTLTLSKADYEKHKVYACEVTHQGLSSPVTKSFNRGEC light 2: NFMLTQPHSVSESPGKTVTISCTRSSGSISYDDVQWYQQRPGSSPTTVIYFNNLRPSGVPDRFSGSIDSSSNSASLTISGLKTEDEADYYCQSWDLRHRVFGGGTKLTVLGQPKAAPSVTLFPPSSEELQANKATLVCLISDFYPGAVTVAWKADSSPVKAGVETTTPSKQSNNKYAASSYLSLTPEQWKSHRSYSCQVTHEGSTVEKTVAPTECS | binds | 
4 | AI10 anti-CD28 bivalent mAb (antibody, V domains shown) VH: not shown VL: DIVMTQTPLSLSVTPGQPASISCKSSGDLLEFAGKTYLYWYLQKPGQPPQLLIYEVSNRFSGVPDRFSGSGSGTDFTLKISRVEAEDVGVYYCMQAHGSKIGFTFGQGTKVEIK |  | binds
